Measured values from patent publication US20230357387A1 (published 2023).

B1: 63A11 parental antibody (antibody, V domains shown)
VH: EVQLVESGGGLVKPGGSRKLSCAASGFTFSDHGMHWVRQAPEKGLEWVAYISSGSSAIFYADTVKGRFTMSRDNAKNTLFLQMTSLRSEDTAMYFCARWTNLYAMDYWGQGTSVTVSS
VL: DIVLTQSPASLAVSLGQRATISCRASKSVSTSGYSYMHWYQQKPGQPPKLLIYLASNLESGVPARFSGSGSGTDFTLNIHPVEEEDAATYYCQHSRELPLTFGAGTKLELKR
B2: 63A11_H2/_L0 (antibody)
chain 1: not shown
chain 2: DIVMTQSPDSLAVSLGERATINCRASKSVSTSGYSYMHWYQQKPGQPPKLLIYLASNLESGVPDRFSGSGSGTDFTLTISSLQAEDVAVYYCQHSRELPLTFGGGTKVEIKRTVAAPSVFIFPPSDEQLKSGTASVVCLLNNFYPREAKVQWKVDNALQSGNSQESVTEQDSKDSTYSLSSTLTLSKADYEKHKVYACEVTHQGLSSPVTKSFNRGEC
B3: 63A11 H2/L0 (antibody)
chain 1: not shown
chain 2: DIVMTQSPDSLAVSLGERATINCRASKSVSTSGYSYMHWYQQKPGQPPKLLIYLASNLESGVPDRFSGSGSGTDFTLTISSLQAEDVAVYYCQHSRELPLTFGGGTKVEIKRTVAAPSVFIFPPSDEQLKSGTASVVCLLNNFYPREAKVQWKVDNALQSGNSQESVTEQDSKDSTYSLSSTLTLSKADYEKHKVYACEVTHQGLSSPVTKSFNRGEC
B4: 63A11_H0/_L0 (antibody)
chain 1: not shown
chain 2: DIVMTQSPDSLAVSLGERATINCRASKSVSTSGYSYMHWYQQKPGQPPKLLIYLASNLESGVPDRFSGSGSGTDFTLTISSLQAEDVAVYYCQHSRELPLTFGGGTKVEIKRTVAAPSVFIFPPSDEQLKSGTASVVCLLNNFYPREAKVQWKVDNALQSGNSQESVTEQDSKDSTYSLSSTLTLSKADYEKHKVYACEVTHQGLSSPVTKSFNRGEC
B5: 63A11_H1/_H1 (antibody)
chain 1: not shown
chain 2: DIVLTQSPDSLAVSLGERATINCRASKSVSTSGYSYMHWYQQKPGQPPKLLIYLASNLESGVPDRFSGSGSGTDFTLTISSLQAEDVAVYYCQHSRELPLTFGGGTKVEIKRTVAAPSVFIFPPSDEQLKSGTASVVCLLNNFYPREAKVQWKVDNALQSGNSQESVTEQDSKDSTYSLSSTLTLSKADYEKHKVYACEVTHQGLSSPVTKSFNRGEC
B6: 63A11_H3/_L0 (antibody)
chain 1: not shown
chain 2: DIVMTQSPDSLAVSLGERATINCRASKSVSTSGYSYMHWYQQKPGQPPKLLIYLASNLESGVPDRFSGSGSGTDFTLTISSLQAEDVAVYYCQHSRELPLTFGGGTKVEIKRTVAAPSVFIFPPSDEQLKSGTASVVCLLNNFYPREAKVQWKVDNALQSGNSQESVTEQDSKDSTYSLSSTLTLSKADYEKHKVYACEVTHQGLSSPVTKSFNRGEC
B7: 63A11 H2/L1 (antibody)
chain 1: not shown
chain 2: DIVLTQSPDSLAVSLGERATINCRASKSVSTSGYSYMHWYQQKPGQPPKLLIYLASNLESGVPDRFSGSGSGTDFTLTISSLQAEDVAVYYCQHSRELPLTFGGGTKVEIKRTVAAPSVFIFPPSDEQLKSGTASVVCLLNNFYPREAKVQWKVDNALQSGNSQESVTEQDSKDSTYSLSSTLTLSKADYEKHKVYACEVTHQGLSSPVTKSFNRGEC
B8: 63A11 H0/L1 (antibody)
chain 1: not shown
chain 2: DIVLTQSPDSLAVSLGERATINCRASKSVSTSGYSYMHWYQQKPGQPPKLLIYLASNLESGVPDRFSGSGSGTDFTLTISSLQAEDVAVYYCQHSRELPLTFGGGTKVEIKRTVAAPSVFIFPPSDEQLKSGTASVVCLLNNFYPREAKVQWKVDNALQSGNSQESVTEQDSKDSTYSLSSTLTLSKADYEKHKVYACEVTHQGLSSPVTKSFNRGEC
B9: 63A11 H3/L0 (antibody)
chain 1: not shown
chain 2: DIVMTQSPDSLAVSLGERATINCRASKSVSTSGYSYMHWYQQKPGQPPKLLIYLASNLESGVPDRFSGSGSGTDFTLTISSLQAEDVAVYYCQHSRELPLTFGGGTKVEIKRTVAAPSVFIFPPSDEQLKSGTASVVCLLNNFYPREAKVQWKVDNALQSGNSQESVTEQDSKDSTYSLSSTLTLSKADYEKHKVYACEVTHQGLSSPVTKSFNRGEC
B10: 63A11 H0/L0 (antibody)
chain 1: not shown
chain 2: DIVMTQSPDSLAVSLGERATINCRASKSVSTSGYSYMHWYQQKPGQPPKLLIYLASNLESGVPDRFSGSGSGTDFTLTISSLQAEDVAVYYCQHSRELPLTFGGGTKVEIKRTVAAPSVFIFPPSDEQLKSGTASVVCLLNNFYPREAKVQWKVDNALQSGNSQESVTEQDSKDSTYSLSSTLTLSKADYEKHKVYACEVTHQGLSSPVTKSFNRGEC
B11: 63A11 H1/L1 (antibody)
chain 1: not shown
chain 2: DIVLTQSPDSLAVSLGERATINCRASKSVSTSGYSYMHWYQQKPGQPPKLLIYLASNLESGVPDRFSGSGSGTDFTLTISSLQAEDVAVYYCQHSRELPLTFGGGTKVEIKRTVAAPSVFIFPPSDEQLKSGTASVVCLLNNFYPREAKVQWKVDNALQSGNSQESVTEQDSKDSTYSLSSTLTLSKADYEKHKVYACEVTHQGLSSPVTKSFNRGEC
B12: 63A11_H3/_L1 (antibody)
chain 1: not shown
chain 2: DIVLTQSPDSLAVSLGERATINCRASKSVSTSGYSYMHWYQQKPGQPPKLLIYLASNLESGVPDRFSGSGSGTDFTLTISSLQAEDVAVYYCQHSRELPLTFGGGTKVEIKRTVAAPSVFIFPPSDEQLKSGTASVVCLLNNFYPREAKVQWKVDNALQSGNSQESVTEQDSKDSTYSLSSTLTLSKADYEKHKVYACEVTHQGLSSPVTKSFNRGEC
B13: 63A11 H1/L0 (antibody)
chain 1: not shown
chain 2: DIVMTQSPDSLAVSLGERATINCRASKSVSTSGYSYMHWYQQKPGQPPKLLIYLASNLESGVPDRFSGSGSGTDFTLTISSLQAEDVAVYYCQHSRELPLTFGGGTKVEIKRTVAAPSVFIFPPSDEQLKSGTASVVCLLNNFYPREAKVQWKVDNALQSGNSQESVTEQDSKDSTYSLSSTLTLSKADYEKHKVYACEVTHQGLSSPVTKSFNRGEC
B14: 51B12 H0L0 (antibody)
chain 1: not shown
chain 2: DIVMTQSPDSLAVSLGERATINCRASKSVSTSGYSYMHWYQQKPGQPPKLLIYLASNLESGVPDRFSGSGSGTDFTLTISSLQAEDVAVYYCQHSREVPYTFGGGTKVEIKRTVAAPSVFIFPPSDEQLKSGTASVVCLLNNFYPREAKVQWKVDNALQSGNSQESVTEQDSKDSTYSLSSTLTLSKADYEKHKVYACEVTHQGLSSPVTKSFNRGEC
B15: 63A11_H2/_L1 (antibody)
chain 1: not shown
chain 2: DIVLTQSPDSLAVSLGERATINCRASKSVSTSGYSYMHWYQQKPGQPPKLLIYLASNLESGVPDRFSGSGSGTDFTLTISSLQAEDVAVYYCQHSRELPLTFGGGTKVEIKRTVAAPSVFIFPPSDEQLKSGTASVVCLLNNFYPREAKVQWKVDNALQSGNSQESVTEQDSKDSTYSLSSTLTLSKADYEKHKVYACEVTHQGLSSPVTKSFNRGEC
B16: 51B12H0L1 (antibody)
chain 1: not shown
chain 2: DIVLTQSPDSLAVSLGERATINCRASKSVSTSGYSYMHWYQQKPGQPPKLLIYLASNLESGVPDRFSGSGSGTDFTLTISSLQAEDVAVYYCQHSREVPYTFGGGTKVEIKRTVAAPSVFIFPPSDEQLKSGTASVVCLLNNFYPREAKVQWKVDNALQSGNSQESVTEQDSKDSTYSLSSTLTLSKADYEKHKVYACEVTHQGLSSPVTKSFNRGEC
B17: 63A11_H0/_L1 (antibody)
chain 1: not shown
chain 2: DIVLTQSPDSLAVSLGERATINCRASKSVSTSGYSYMHWYQQKPGQPPKLLIYLASNLESGVPDRFSGSGSGTDFTLTISSLQAEDVAVYYCQHSRELPLTFGGGTKVEIKRTVAAPSVFIFPPSDEQLKSGTASVVCLLNNFYPREAKVQWKVDNALQSGNSQESVTEQDSKDSTYSLSSTLTLSKADYEKHKVYACEVTHQGLSSPVTKSFNRGEC
B18: 63A11 H3/L1 (antibody)
chain 1: not shown
chain 2: DIVLTQSPDSLAVSLGERATINCRASKSVSTSGYSYMHWYQQKPGQPPKLLIYLASNLESGVPDRFSGSGSGTDFTLTISSLQAEDVAVYYCQHSRELPLTFGGGTKVEIKRTVAAPSVFIFPPSDEQLKSGTASVVCLLNNFYPREAKVQWKVDNALQSGNSQESVTEQDSKDSTYSLSSTLTLSKADYEKHKVYACEVTHQGLSSPVTKSFNRGEC
B19: 63A11_H1/_L0 (antibody)
chain 1: not shown
chain 2: DIVMTQSPDSLAVSLGERATINCRASKSVSTSGYSYMHWYQQKPGQPPKLLIYLASNLESGVPDRFSGSGSGTDFTLTISSLQAEDVAVYYCQHSRELPLTFGGGTKVEIKRTVAAPSVFIFPPSDEQLKSGTASVVCLLNNFYPREAKVQWKVDNALQSGNSQESVTEQDSKDSTYSLSSTLTLSKADYEKHKVYACEVTHQGLSSPVTKSFNRGEC
B20: *51B12 H0L2 (antibody)
chain 1: not shown
chain 2: DIVMTQSPDSLAVSLGERATINCRASKSVSTSGYSYMHWYQQKPGQPPKFLIYLASNLESGVPDRFSGSGSGTDFTLTISSLQAEDVAVYYCQHSREVPYTFGGGTKVEIKRTVAAPSVFIFPPSDEQLKSGTASVVCLLNNFYPREAKVQWKVDNALQSGNSQESVTEQDSKDSTYSLSSTLTLSKADYEKHKVYACEVTHQGLSSPVTKSFNRGEC

What was measured:
[1] = target: T1, human ZIP12 extracellular domain expressed as a GST fusion protein (UniProt Q504Y0 1-202); assay: ELISA
[2] = target: human ZIP12 on human ZIP12 expressing transfectant cells (UniProt Q504Y0 1-691); assay: flow cytometry
[3] = target: T1, human ZIP12 extracellular domain …; assay: SPR; replicate 1
[4] = target: T1, human ZIP12 extracellular domain …; assay: SPR; replicate 2
[5] = target: T1, human ZIP12 extracellular domain …; assay: SPR; replicate 1; remark: listed apart in the source
[6] = target: T1, human ZIP12 extracellular domain …; assay: SPR; replicate 2; remark: listed apart in the source

| Binder | EC50 [1] | EC50 [2] | Kd [3] | Kd [4] | Kd [5] | Kd [6] |
| --- | --- | --- | --- | --- | --- | --- |
| B1 | 0.0017 µg/mL | 0.233 µg/mL | 0.757 nM | 0.757 nM |  |  |
| B2 |  |  | 2.1 nM | 2.04 nM |  |  |
| B3 | 0.0018 µg/mL | 0.411 µg/mL |  |  |  |  |
| B4 |  |  | 2.38 nM | 1.95 nM |  |  |
| B5 |  |  | 1.82 nM | 1.96 nM |  |  |
| B6 |  |  | 1.23 nM | 1.62 nM |  |  |
| B7 | 0.0016 µg/mL | 0.586 µg/mL |  |  |  |  |
| B8 | 0.0016 µg/mL | 0.338 µg/mL |  |  |  |  |
| B9 | 0.002 µg/mL | 0.583 µg/mL |  |  |  |  |
| B10 | 0.0018 µg/mL | 0.778 µg/mL |  |  |  |  |
| B11 | 0.0015 µg/mL | 0.515 µg/mL |  |  |  |  |
| B12 |  |  | 1.28 nM | 1.41 nM |  |  |
| B13 | 0.0018 µg/mL | 0.508 µg/mL |  |  |  |  |
| B14 |  |  |  |  | 1.39 nM | 1.39 nM |
| B15 |  |  | 0.97 nM | 1.14 nM |  |  |
| B16 |  |  |  |  | 4.17 nM | 1.83 nM |
| B17 |  |  | 0.888 nM | 0.889 nM |  |  |
| B18 | 0.0019 µg/mL | 0.5 µg/mL |  |  |  |  |
| B19 |  |  | 1.32 nM | 1.62 nM |  |  |
| B20 |  |  |  |  | 0.706 nM | 2.16 nM |
